Reference: PMC5297723

Target: recombinant CMG2-Fc-Apo (rCMG2-Fc-Apo) protein (human) (UniProt P58335)
Test: non-reducing SDS-PAGE

How did the stoichiometry N turn out when “recombinant CMG2-Fc-Apo (rCMG2-Fc-Apo) protein (from UniProt P58335 34-318) (Fc fusion)” was run?
Its stoichiometry N is 2.
